The values below come from patent publication US20210139548A1 (published 2021).

*1 amine or outer side, *2 acyl side, *3 side chain or, on linkers, in order; H or OH if unused. Side-chain parts run from the residue outwards. The star is where a group is joined. C18 diacid = O=C(O)CCCCCCCCCCCCCCCCC(=O)*; γGlu = O=C(O)[C@H](CCC(=O)[*:2])N[*:1]; Isovaleryl = CC(C)CC(=O)*; AEEA = NCCOCCOCC(=O)O

Broadly, the Ki is the dissociation constant of the complex between target and ligand, obtained from inhibition or displacement. A lower Ki goes with a stronger hold on the target.

In the assay the target is T1, human neuropeptide Y2 receptor (human, UniProt P49146 1-381).
T1 construct: whole, on cells; also called hNPY2 receptor; hNPY2-R
T1 sequence (looked up): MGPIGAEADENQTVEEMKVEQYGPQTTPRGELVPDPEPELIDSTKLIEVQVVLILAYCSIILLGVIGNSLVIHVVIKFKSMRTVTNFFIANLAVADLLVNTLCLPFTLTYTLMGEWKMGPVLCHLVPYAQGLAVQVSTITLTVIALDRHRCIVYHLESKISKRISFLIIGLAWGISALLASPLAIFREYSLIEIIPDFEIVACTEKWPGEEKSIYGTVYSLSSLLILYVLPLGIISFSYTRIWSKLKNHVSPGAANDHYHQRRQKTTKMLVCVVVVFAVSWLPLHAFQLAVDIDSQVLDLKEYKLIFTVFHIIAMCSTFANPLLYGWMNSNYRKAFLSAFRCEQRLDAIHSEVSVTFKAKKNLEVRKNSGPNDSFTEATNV
Put plainly: radioligand competition (125I-PYY(1-36)), hNPY2R membranes. In outline: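 Commercial human Y2 receptor membranes (0.5 μg protein/well) were incubated with peptide for 2 h at room temperature in 50 mM HEPES, 5 mM MgCl₂, 1 mM CaCl₂, pH 7.4, with 0.2% ovalbumin. Bound radioligand was separated on PEI-soaked GF/C filters and counted by scintillation, and IC₅₀ came from nonlinear sigmoidal regression.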
(Displacement assays read how much labelled ligand stays bound in the presence of the test substance.)

B1: Compound 89 (peptide)
peptide: Isovaleryl-APEK([AEEA-AEEA-γGlu-C18 diacid])PEEEAEPEELQRYYVSLRHYYNWLTRQRY-NH2
SMILES: CC(C)CC(=O)N[C@@H](C)C(=O)N1CCC[C@H]1C(=O)N[C@@H](CCC(=O)O)C(=O)N[C@@H](CCCCNC(=O)COCCOCCNC(=O)COCCOCCNC(=O)CC[C@H](NC(=O)CCCCCCCCCCCCCCCCC(=O)O)C(=O)O)C(=O)N1CCC[C@H]1C(=O)N[C@@H](CCC(=O)O)C(=O)N[C@@H](CCC(=O)O)C(=O)N[C@@H](CCC(=O)O)C(=O)N[C@@H](C)C(=O)N[C@@H](CCC(=O)O)C(=O)N1CCC[C@H]1C(=O)N[C@@H](CCC(=O)O)C(=O)N[C@@H](CCC(=O)O)C(=O)N[C@@H](CC(C)C)C(=O)N[C@@H](CCC(N)=O)C(=O)N[C@@H](CCCNC(=N)N)C(=O)N[C@@H](Cc1ccc(O)cc1)C(=O)N[C@@H](Cc1ccc(O)cc1)C(=O)N[C@H](C(=O)N[C@@H](CO)C(=O)N[C@@H](CC(C)C)C(=O)N[C@@H](CCCNC(=N)N)C(=O)N[C@@H](Cc1c[nH]cn1)C(=O)N[C@@H](Cc1ccc(O)cc1)C(=O)N[C@@H](Cc1ccc(O)cc1)C(=O)N[C@@H](CC(N)=O)C(=O)N[C@@H](Cc1c[nH]c2ccccc12)C(=O)N[C@@H](CC(C)C)C(=O)N[C@H](C(=O)N[C@@H](CCCNC(=N)N)C(=O)N[C@@H](CCC(N)=O)C(=O)N[C@@H](CCCNC(=N)N)C(=O)N[C@@H](Cc1ccc(O)cc1)C(N)=O)[C@@H](C)O)C(C)C
In the case of B1, the affinity, expressed as Ki, was 9.61 nM.

B2: Compound 90 (peptide)
peptide: Isovaleryl-APEK([AEEA-AEEA-γGlu-C18 diacid])PEEDASPEELQRYEVSLRHYYNWLTRQRY-NH2
SMILES: CC(C)CC(=O)N[C@@H](C)C(=O)N1CCC[C@H]1C(=O)N[C@@H](CCC(=O)O)C(=O)N[C@@H](CCCCNC(=O)COCCOCCNC(=O)COCCOCCNC(=O)CC[C@H](NC(=O)CCCCCCCCCCCCCCCCC(=O)O)C(=O)O)C(=O)N1CCC[C@H]1C(=O)N[C@@H](CCC(=O)O)C(=O)N[C@@H](CCC(=O)O)C(=O)N[C@@H](CC(=O)O)C(=O)N[C@@H](C)C(=O)N[C@@H](CO)C(=O)N1CCC[C@H]1C(=O)N[C@@H](CCC(=O)O)C(=O)N[C@@H](CCC(=O)O)C(=O)N[C@@H](CC(C)C)C(=O)N[C@@H](CCC(N)=O)C(=O)N[C@@H](CCCNC(=N)N)C(=O)N[C@@H](Cc1ccc(O)cc1)C(=O)N[C@@H](CCC(=O)O)C(=O)N[C@H](C(=O)N[C@@H](CO)C(=O)N[C@@H](CC(C)C)C(=O)N[C@@H](CCCNC(=N)N)C(=O)N[C@@H](Cc1c[nH]cn1)C(=O)N[C@@H](Cc1ccc(O)cc1)C(=O)N[C@@H](Cc1ccc(O)cc1)C(=O)N[C@@H](CC(N)=O)C(=O)N[C@@H](Cc1c[nH]c2ccccc12)C(=O)N[C@@H](CC(C)C)C(=O)N[C@H](C(=O)N[C@@H](CCCNC(=N)N)C(=O)N[C@@H](CCC(N)=O)C(=O)N[C@@H](CCCNC(=N)N)C(=O)N[C@@H](Cc1ccc(O)cc1)C(N)=O)[C@@H](C)O)C(C)C
B2: the Ki was 1.6 nM.
